Laboratory results: US20240309103A1 (Regeneron, published 2024)

Legend:
[1] = molecular target: T1, hNPR1-mFc:hANP or hNPR1-hFc:hANP complex (human, UniProt P01160 124-151); experiment: SPR, mAb captured, 25C
T1 construct: also called human NPR1 complexed to ANP
Method: (§1) Equilibrium dissociation constant (KD) for different NPR1 reagents binding to purified anti-NPR1 monoclonal antibodies (mAbs) were determined using a real-time surface plasmon resonance based Biacore 4000 biosensor. All binding studies were performed in 10 mM HEPES, 150 mM NaCl, 3 mM EDTA, and 0.05% v/v Surfactant Tween-20, pH 7.4 (HBS-ET) running buffer at 25° C. and 37° C. The Biacore CM5 sensor chip surface was first derivatized by amine coupling with either mouse anti-human Fc specific mAb (GE Healthcare, #BR100839) or goat anti-human Fcy specific polyclonal antibody (Jackson ImmunoResearch Laboratories, #BR-1008-39) to capture anti-NPR1 mAbs.

hNPR1-mFc:hBNP complex [2] = molecular target: T2, hNPR1-mFc:hBNP complex (human, UniProt P16860 103-134); experiment: SPR, mAb captured, 25C
T2 construct: also called human NPR1 complexed to BNP
Method: as §1

mfNPR1-mFc [3] = molecular target: T3, mfNPR1-mFc (monkey); experiment: SPR, mAb captured, 25C
T3 construct: also called dimeric monkey NPR1
T3 chain: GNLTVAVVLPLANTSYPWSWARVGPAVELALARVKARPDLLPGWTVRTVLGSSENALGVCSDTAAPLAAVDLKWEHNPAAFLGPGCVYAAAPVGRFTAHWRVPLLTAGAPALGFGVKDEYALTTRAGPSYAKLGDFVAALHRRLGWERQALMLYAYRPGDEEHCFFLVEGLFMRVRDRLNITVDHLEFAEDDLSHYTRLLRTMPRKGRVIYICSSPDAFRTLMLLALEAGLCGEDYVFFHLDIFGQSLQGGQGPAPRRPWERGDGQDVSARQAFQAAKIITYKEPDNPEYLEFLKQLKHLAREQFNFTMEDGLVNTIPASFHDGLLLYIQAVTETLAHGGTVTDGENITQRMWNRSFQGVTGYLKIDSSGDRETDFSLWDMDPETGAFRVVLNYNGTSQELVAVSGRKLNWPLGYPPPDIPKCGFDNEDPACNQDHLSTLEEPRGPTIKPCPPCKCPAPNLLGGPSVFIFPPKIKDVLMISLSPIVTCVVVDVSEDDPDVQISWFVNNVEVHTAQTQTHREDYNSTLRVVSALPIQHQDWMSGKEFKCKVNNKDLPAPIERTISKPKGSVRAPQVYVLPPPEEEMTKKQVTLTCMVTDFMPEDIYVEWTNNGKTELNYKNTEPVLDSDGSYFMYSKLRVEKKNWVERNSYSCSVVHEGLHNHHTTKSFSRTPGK
Method: as §1

mfNPR1-mFc:hANP complex [4] = molecular target: T4, mfNPR1-mFc:hANP complex (monkey; human, UniProt P01160 124-151); experiment: SPR, mAb captured, 25C
T4 construct: also called monkey NPR1 complexed to ANP
Method: as §1

mfNPR1-mFc:hBNP complex = molecular target: T5, mfNPR1-mFc:hBNP complex (monkey; human, UniProt P16860 103-134); experiment: SPR, mAb captured, 25C
T5 construct: also called monkey NPR1 complexed to BNP
Method: as §1

[5] = molecular target: T1, hNPR1-mFc:hANP or hNPR1-hFc:hANP complex; experiment: SPR, mAb captured, 37C
Method: as §1

hNPR1-mFc:hBNP complex [6] = molecular target: T2, hNPR1-mFc:hBNP complex; experiment: SPR, mAb captured, 37C
Method: as §1

mfNPR1-mFc [7] = molecular target: T3, mfNPR1-mFc; experiment: SPR, mAb captured, 37C
Method: as §1

mfNPR1-mFc:hANP complex [8] = molecular target: T4, mfNPR1-mFc:hANP complex; experiment: SPR, mAb captured, 37C
Method: as §1

B1: mAb22035 (antibody, human IgG4, V domains shown)
VH: EVQLVESGGGLVQPGRSLRLSCAASGFTFDDYAMHWVRQAPGKGLEWVSGISWNSGTIGYADSVKGRFTMSRDNAKNSLYLQMNSLRPEDTALYYCAKDMGVSLALWGAFDIWGQGTMVTVSS
VL: DIQMTQSPSSLSASVGDKVTITCRASQNIRTYLNWYQQKPGKAPKVLISTASSLQSGVPSRFSGSGSGTDFTLTISSLQPEDFAVFYCQQSFGIPRTFGQGTKVEIK
100 nM Ag Bound (RU) [1]: 186 RU | Kd [1]: 0.434 nM | koff [1]: 7.78e-05 s⁻¹ | kon [1]: 179000 M⁻¹ s⁻¹ | t½ [1]: 2.47 h | 100 nM Ag Bound (RU) (hNPR1-mFc:hBNP complex [2]): 194 RU | Kd (hNPR1-mFc:hBNP complex [2]): 0.508 nM | koff (hNPR1-mFc:hBNP complex [2]): 8.7e-05 s⁻¹ | kon (hNPR1-mFc:hBNP complex [2]): 171000 M⁻¹ s⁻¹ | t½ (hNPR1-mFc:hBNP complex [2]): 2.21 h | 100 nM Ag Bound (RU) (mfNPR1-mFc [3]): 231 RU | Kd (mfNPR1-mFc [3]): 0.229 nM | koff (mfNPR1-mFc [3]): 5.57e-05 s⁻¹ | kon (mfNPR1-mFc [3]): 244000 M⁻¹ s⁻¹ | t½ (mfNPR1-mFc [3]): 3.45 h | 100 nM Ag Bound (RU) (mfNPR1-mFc:hANP complex [4]): 227 RU | Kd (mfNPR1-mFc:hANP complex [4]): 0.246 nM | koff (mfNPR1-mFc:hANP complex [4]): 4.66e-05 s⁻¹ | kon (mfNPR1-mFc:hANP complex [4]): 189000 M⁻¹ s⁻¹ | t½ (mfNPR1-mFc:hANP complex [4]): 4.13 h | 100 nM Ag Bound (RU) (mfNPR1-mFc:hBNP complex): 231 RU | Kd (mfNPR1-mFc:hBNP complex): 0.3 nM | koff (mfNPR1-mFc:hBNP complex): 6.13e-05 s⁻¹ | kon (mfNPR1-mFc:hBNP complex): 205000 M⁻¹ s⁻¹ | t½ (mfNPR1-mFc:hBNP complex): 3.14 h | 100 nM Ag Bound (RU) [5]: 237 RU | Kd [5]: 0.508 nM | koff [5]: 0.000114 s⁻¹ | kon [5]: 225000 M⁻¹ s⁻¹ | t½ [5]: 1.68 h | 100 nM Ag Bound (RU) (hNPR1-mFc:hBNP complex [6]): 243 RU | Kd (hNPR1-mFc:hBNP complex [6]): 0.553 nM | koff (hNPR1-mFc:hBNP complex [6]): 0.000128 s⁻¹ | kon (hNPR1-mFc:hBNP complex [6]): 232000 M⁻¹ s⁻¹ | t½ (hNPR1-mFc:hBNP complex [6]): 1.5 h | 100 nM Ag Bound (RU) (mfNPR1-mFc [7]): 291 RU | Kd (mfNPR1-mFc [7]): 0.184 nM | koff (mfNPR1-mFc [7]): 8.44e-05 s⁻¹ | kon (mfNPR1-mFc [7]): 459000 M⁻¹ s⁻¹ | t½ (mfNPR1-mFc [7]): 2.28 h | 100 nM Ag Bound (RU) (mfNPR1-mFc:hANP complex [8]): 283 RU | Kd (mfNPR1-mFc:hANP complex [8]): 0.302 nM | koff (mfNPR1-mFc:hANP complex [8]): 7.7e-05 s⁻¹ | kon (mfNPR1-mFc:hANP complex [8]): 255000 M⁻¹ s⁻¹ | t½ (mfNPR1-mFc:hANP complex [8]): 2.5 h

B2: mAb22809 (antibody, human IgG4, V domains shown)
VH: QLQLRESGPGLVKPSETLSLTCTVSGGSINDNSFFWDWIRQTPGRGLEWIGNIFFDGNTYYTPSLKSRVIISVDMSQNQFSLRLTSVTAADTALYYCARHKRSMTAWGFFDYWGQGTLVTVSS
VL: DIQMTQSPSSLSASVGDRVTITCRASKRINTYLNWYQQKPGKAPKVLIYSASNLQSGVPSRFSGSGSGTDFTLTINSLQPEDFATYFCQQSFSAPPITFGQGTRLEIK
100 nM Ag Bound (RU) [1]: 53 RU | Kd [1]: 4.94 nM | koff [1]: 0.000193 s⁻¹ | kon [1]: 39200 M⁻¹ s⁻¹ | t½ [1]: 0.995 h | 100 nM Ag Bound (RU) (hNPR1-mFc:hBNP complex [2]): 51 RU | Kd (hNPR1-mFc:hBNP complex [2]): 6.72 nM | koff (hNPR1-mFc:hBNP complex [2]): 0.000221 s⁻¹ | kon (hNPR1-mFc:hBNP complex [2]): 32800 M⁻¹ s⁻¹ | t½ (hNPR1-mFc:hBNP complex [2]): 0.873 h | 100 nM Ag Bound (RU) (mfNPR1-mFc [3]): 6 RU | binding result (mfNPR1-mFc [3]): no binding (tested: 100 nM) | 100 nM Ag Bound (RU) (mfNPR1-mFc:hANP complex [4]): 86 RU | Kd (mfNPR1-mFc:hANP complex [4]): 3.88 nM | koff (mfNPR1-mFc:hANP complex [4]): 0.000173 s⁻¹ | kon (mfNPR1-mFc:hANP complex [4]): 44700 M⁻¹ s⁻¹ | t½ (mfNPR1-mFc:hANP complex [4]): 1.11 h | 100 nM Ag Bound (RU) (mfNPR1-mFc:hBNP complex): 80 RU | Kd (mfNPR1-mFc:hBNP complex): 3.85 nM | koff (mfNPR1-mFc:hBNP complex): 0.00016 s⁻¹ | kon (mfNPR1-mFc:hBNP complex): 41400 M⁻¹ s⁻¹ | t½ (mfNPR1-mFc:hBNP complex): 1.21 h | 100 nM Ag Bound (RU) [5]: 68 RU | Kd [5]: 3.29 nM | koff [5]: 0.000166 s⁻¹ | kon [5]: 50400 M⁻¹ s⁻¹ | t½ [5]: 1.16 h | 100 nM Ag Bound (RU) (hNPR1-mFc:hBNP complex [6]): 63 RU | Kd (hNPR1-mFc:hBNP complex [6]): 3.56 nM | koff (hNPR1-mFc:hBNP complex [6]): 0.000166 s⁻¹ | kon (hNPR1-mFc:hBNP complex [6]): 46500 M⁻¹ s⁻¹ | t½ (hNPR1-mFc:hBNP complex [6]): 1.16 h | 100 nM Ag Bound (RU) (mfNPR1-mFc [7]): 8 RU | 100 nM Ag Bound (RU) (mfNPR1-mFc:hANP complex [8]): 106 RU | Kd (mfNPR1-mFc:hANP complex [8]): 3.7 nM | koff (mfNPR1-mFc:hANP complex [8]): 0.000205 s⁻¹ | kon (mfNPR1-mFc:hANP complex [8]): 55500 M⁻¹ s⁻¹ | t½ (mfNPR1-mFc:hANP complex [8]): 0.937 h

B3: mAb22033 (antibody, human IgG4, V domains shown)
VH: QVQLVQSGAEVKKPGASVTVSCKASGYTFTDYYMHWVRQAPGQGLEWMGWIKPNSGGTNSAQRFQGRITMTWDTSISTAYMELSRLRSDDTAVYYCSRGGPVMNYYYYYGMDVWGQGTTVTVSS
VL: NIQMTQSPSSLSASVGDRVTITCRASQSIDSYLNWYQQKPGKAPKLLIYVASSLQSGVPSRFSGSGSGKDFTLTISSLQPEDFATYYCQQSYSIPTFGQGTRLEIK
100 nM Ag Bound (RU) [1]: 84 RU | Kd [1]: 1.43 nM | koff [1]: 8.6e-05 s⁻¹ | kon [1]: 60300 M⁻¹ s⁻¹ | t½ [1]: 2.24 h | 100 nM Ag Bound (RU) (hNPR1-mFc:hBNP complex [2]): 85 RU | Kd (hNPR1-mFc:hBNP complex [2]): 1.23 nM | koff (hNPR1-mFc:hBNP complex [2]): 6.67e-05 s⁻¹ | kon (hNPR1-mFc:hBNP complex [2]): 54300 M⁻¹ s⁻¹ | t½ (hNPR1-mFc:hBNP complex [2]): 2.89 h | 100 nM Ag Bound (RU) (mfNPR1-mFc [3]): 96 RU | Kd (mfNPR1-mFc [3]): 0.938 nM | koff (mfNPR1-mFc [3]): 4.85e-05 s⁻¹ | kon (mfNPR1-mFc [3]): 51700 M⁻¹ s⁻¹ | t½ (mfNPR1-mFc [3]): 3.97 h | 100 nM Ag Bound (RU) (mfNPR1-mFc:hANP complex [4]): 133 RU | Kd (mfNPR1-mFc:hANP complex [4]): 0.815 nM | koff (mfNPR1-mFc:hANP complex [4]): 5.36e-05 s⁻¹ | kon (mfNPR1-mFc:hANP complex [4]): 65800 M⁻¹ s⁻¹ | t½ (mfNPR1-mFc:hANP complex [4]): 3.59 h | 100 nM Ag Bound (RU) (mfNPR1-mFc:hBNP complex): 132 RU | Kd (mfNPR1-mFc:hBNP complex): 0.781 nM | koff (mfNPR1-mFc:hBNP complex): 5.15e-05 s⁻¹ | kon (mfNPR1-mFc:hBNP complex): 65900 M⁻¹ s⁻¹ | t½ (mfNPR1-mFc:hBNP complex): 3.74 h | 100 nM Ag Bound (RU) [5]: 108 RU | Kd [5]: 1.69 nM | koff [5]: 9.8e-05 s⁻¹ | kon [5]: 57900 M⁻¹ s⁻¹ | t½ [5]: 1.97 h | 100 nM Ag Bound (RU) (hNPR1-mFc:hBNP complex [6]): 108 RU | Kd (hNPR1-mFc:hBNP complex [6]): 1.79 nM | koff (hNPR1-mFc:hBNP complex [6]): 9.6e-05 s⁻¹ | kon (hNPR1-mFc:hBNP complex [6]): 53700 M⁻¹ s⁻¹ | t½ (hNPR1-mFc:hBNP complex [6]): 2 h | 100 nM Ag Bound (RU) (mfNPR1-mFc [7]): 126 RU | Kd (mfNPR1-mFc [7]): 2.06 nM | koff (mfNPR1-mFc [7]): 9.9e-05 s⁻¹ | kon (mfNPR1-mFc [7]): 48200 M⁻¹ s⁻¹ | t½ (mfNPR1-mFc [7]): 1.95 h | 100 nM Ag Bound (RU) (mfNPR1-mFc:hANP complex [8]): 169 RU | Kd (mfNPR1-mFc:hANP complex [8]): 1.31 nM | koff (mfNPR1-mFc:hANP complex [8]): 8.9e-05 s⁻¹ | kon (mfNPR1-mFc:hANP complex [8]): 68000 M⁻¹ s⁻¹ | t½ (mfNPR1-mFc:hANP complex [8]): 2.16 h
